Numbered stars: 1 amine (or outer) side, 2 acyl side, 3 side chain; on linkers, the order of the positions; unused ones are H or OH. Square brackets hold non-standard residues; d marks the D form. * marks the point of attachment. hPhe(2,4-di-NO2) = 2,4-di-NO2 homophenylalanine, O=C([C@H](CCc1ccc([N+](=O)[O-])cc1[N+](=O)[O-])N[*:1])[*:2]; Phe(4-NHAc) = 4-acetamidophenylalanine, CC(=O)Nc1ccc(C[C@H](N[*:1])C(=O)[*:2])cc1; Phe(4-CH2SO3H) = N[C@@H](Cc1ccc(CS(=O)(=O)O)cc1)C(=O)O; Phe(4-NO2) = N[C@@H](Cc1ccc([N+](=O)[O-])cc1)C(=O)O; Phe(4-CH2NH2) = NCc1ccc(C[C@H](N)C(=O)O)cc1; Tyr(3-Cl) = N[C@@H](Cc1ccc(O)c(Cl)c1)C(=O)O; Phe(4-F) = N[C@@H](Cc1ccc(F)cc1)C(=O)O; Dmt = Cc1cc(O)cc(C)c1C[C@H](N)C(=O)O; Dab = NCC[C@H](N)C(=O)O; Dap = NC[C@H](N)C(=O)O; Hexanoyl = CCCCCC(=O)*; Propionyl = CCC(=O)*; Ahx = NCCCCCC(=O)O
Key:
[1] = target: T1, human ORL-1 receptor (opioid receptor like 1) (human, UniProt P41146 1-370); test: binding assay at ORL1 (taken as [3H]nociceptin displacement as in Table 1)
T1 construct: whole, on cells; Assays were run on membranes of CHO cells transfected with human ORL-1; also called opiate receptor like 1; nociceptin receptor

[2] = target: T1, human ORL-1 receptor (opioid receptor …); test: cell-based or functional assay
[3] = target: T1, human ORL-1 receptor (opioid receptor …); test: [3H]nociceptin displacement, membranes of CHO cells transfected with human ORL-1; Ki=IC50/(1+L/Kd)
Experimental: Receptor binding studies were conducted on human ORL1 (opiate receptor like 1) transfected into Chinese hamster ovary (CHO) cells using each of the hexapeptide analog compounds of Table 3. All the compounds were evaluated for binding affinities. […] The data shown in Table 5 represents the average±SEM of at least two experiments conducted in triplicate.
Cells are removed from the plates by scraping with a rubber policeman, and then homogenized in Tris buffer using a Polytron homogenizer. Following this homogenization step, the cellular mixture is centrifuged once and washed by an additional centrifugation at 40,000×g for 15 min. The pellet formed during the centrifugation is re-suspended in 50 mM Tris, pH 7.5. […] Samples of the suspension are then filtered over glass fiber filters using a Wallac cell harvester.
For the data in Table 5, binding was conducted as described above. IC₅₀ values and Hill coefficients were determined using the curve-fitting program Prism. K₁ values were calculated using the equation K₁=IC₅₀/(1+[L]/Kd). […] The data in Table 5 represent the average±SEM of at least two experiments conducted in triplicate.

T1 sequence (P41146 whole entry): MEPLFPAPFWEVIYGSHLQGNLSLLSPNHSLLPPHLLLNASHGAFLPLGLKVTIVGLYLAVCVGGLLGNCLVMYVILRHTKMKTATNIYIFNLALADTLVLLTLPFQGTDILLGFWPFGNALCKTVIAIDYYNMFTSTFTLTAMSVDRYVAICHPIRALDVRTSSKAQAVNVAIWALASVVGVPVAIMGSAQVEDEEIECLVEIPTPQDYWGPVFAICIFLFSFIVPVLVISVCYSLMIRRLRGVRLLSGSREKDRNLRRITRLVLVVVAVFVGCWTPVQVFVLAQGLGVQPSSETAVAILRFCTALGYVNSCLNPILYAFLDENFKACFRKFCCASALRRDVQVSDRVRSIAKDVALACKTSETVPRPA

Binder | IC50 [1] [nM] | % Stimulation of [35S]GTPγS binding [2] [%] | Ki [3] [nM] | EC50 (nM) of stimulation of [35S]GTPγS binding [2] [nM]
Propionyl-AYYRWR-NH2 (SMILES CCC(=O)N[C@@H](C)C(=O)N[C@@H](Cc1ccc(O)cc1)C(=O)N[C@@H](Cc1ccc(O)cc1)C(=O)N[C@@H](CCCNC(=N)N)C(=O)N[C@@H](Cc1c[nH]c2ccccc12)C(=O)N[C@@H](CCCNC(=N)N)C(N)=O) [IV-21-C Propionyl-AYYRWR-NH2] | 1780 | – | – | –
Hexanoyl-AYYRWR-NH2 (SMILES CCCCCC(=O)N[C@@H](C)C(=O)N[C@@H](Cc1ccc(O)cc1)C(=O)N[C@@H](Cc1ccc(O)cc1)C(=O)N[C@@H](CCCNC(=N)N)C(=O)N[C@@H](Cc1c[nH]c2ccccc12)C(=O)N[C@@H](CCCNC(=N)N)C(N)=O) [IV-33-B Hexanoyl-AYYRWR-NH2] | 1020 | – | – | –
Propionyl-RYARWR-NH2 (SMILES CCC(=O)N[C@@H](CCCNC(=N)N)C(=O)N[C@@H](Cc1ccc(O)cc1)C(=O)N[C@@H](C)C(=O)N[C@@H](CCCNC(=N)N)C(=O)N[C@@H](Cc1c[nH]c2ccccc12)C(=O)N[C@@H](CCCNC(=N)N)C(N)=O) [IV-25-B Propionyl-RYARWR-NH2] | 495 | – | – | –
Propionyl-RYYRAR-NH2 (SMILES CCC(=O)N[C@@H](CCCNC(=N)N)C(=O)N[C@@H](Cc1ccc(O)cc1)C(=O)N[C@@H](Cc1ccc(O)cc1)C(=O)N[C@@H](CCCNC(=N)N)C(=O)N[C@@H](C)C(=O)N[C@@H](CCCNC(=N)N)C(N)=O) [IV-29-B Propionyl-RYYRAR-NH2] | 1890 | – | – | –
Propionyl-RAYRWR-NH2 (SMILES CCC(=O)N[C@@H](CCCNC(=N)N)C(=O)N[C@@H](C)C(=O)N[C@@H](Cc1ccc(O)cc1)C(=O)N[C@@H](CCCNC(=N)N)C(=O)N[C@@H](Cc1c[nH]c2ccccc12)C(=O)N[C@@H](CCCNC(=N)N)C(N)=O) [IV-23-B Propionyl-RAYRWR-NH2] | 182 | – | – | –
Hexanoyl-RYARWR-NH2 (SMILES CCCCCC(=O)N[C@@H](CCCNC(=N)N)C(=O)N[C@@H](Cc1ccc(O)cc1)C(=O)N[C@@H](C)C(=O)N[C@@H](CCCNC(=N)N)C(=O)N[C@@H](Cc1c[nH]c2ccccc12)C(=O)N[C@@H](CCCNC(=N)N)C(N)=O) [IV-37-B Hexanoyl-RYARWR-NH2] | 79 | – | – | –
Propionyl-RYYAWR-NH2 (SMILES CCC(=O)N[C@@H](CCCNC(=N)N)C(=O)N[C@@H](Cc1ccc(O)cc1)C(=O)N[C@@H](Cc1ccc(O)cc1)C(=O)N[C@@H](C)C(=O)N[C@@H](Cc1c[nH]c2ccccc12)C(=O)N[C@@H](CCCNC(=N)N)C(N)=O) [IV-27-B Propionyl-RYYAWR-NH2] | 400 | – | – | –
Hexanoyl-RAYRWR-NH2 (SMILES CCCCCC(=O)N[C@@H](CCCNC(=N)N)C(=O)N[C@@H](C)C(=O)N[C@@H](Cc1ccc(O)cc1)C(=O)N[C@@H](CCCNC(=N)N)C(=O)N[C@@H](Cc1c[nH]c2ccccc12)C(=O)N[C@@H](CCCNC(=N)N)C(N)=O) [IV-35-B Hexanoyl-RAYRWR-NH2] | 113 | – | – | –
Propionyl-RYYRWA-NH2 (SMILES CCC(=O)N[C@@H](CCCNC(=N)N)C(=O)N[C@@H](Cc1ccc(O)cc1)C(=O)N[C@@H](Cc1ccc(O)cc1)C(=O)N[C@@H](CCCNC(=N)N)C(=O)N[C@@H](Cc1c[nH]c2ccccc12)C(=O)N[C@@H](C)C(N)=O) [IV-31-B Propionyl-RYYRWA-NH2] | 76 | – | – | –
Ac-[Dab]YYRWR-NH2 (SMILES CC(=O)N[C@@H](CCN)C(=O)N[C@@H](Cc1ccc(O)cc1)C(=O)N[C@@H](Cc1ccc(O)cc1)C(=O)N[C@@H](CCCNC(=N)N)C(=O)N[C@@H](Cc1c[nH]c2ccccc12)C(=O)N[C@@H](CCCNC(=N)N)C(N)=O, also called Ac-Dab-Tyr-Tyr-Arg-Trp-Arg-NH2) [VII-67-A] | – | < 20 | 5.59 | –
Ac-RY[Phe(4-CH2NH2)]RWR-NH2 (SMILES CC(=O)N[C@@H](CCCNC(=N)N)C(=O)N[C@@H](Cc1ccc(O)cc1)C(=O)N[C@@H](Cc1ccc(CN)cc1)C(=O)N[C@@H](CCCNC(=N)N)C(=O)N[C@@H](Cc1c[nH]c2ccccc12)C(=O)N[C@@H](CCCNC(=N)N)C(N)=O, also called Ac-Arg-Tyr-Phe(4-CH2NH2)-Arg-Trp-Arg-NH2) [VII-79-A] | – | < 20 | 2.54 | –
Ac-RY[hPhe(2,4-di-NO2)]RWR-NH2 (SMILES CC(=O)N[C@@H](CCCNC(=N)N)C(=O)N[C@@H](Cc1ccc(O)cc1)C(=O)N[C@@H](CCc1ccc([N+](=O)[O-])cc1[N+](=O)[O-])C(=O)N[C@@H](CCCNC(=N)N)C(=O)N[C@@H](Cc1c[nH]c2ccccc12)C(=O)N[C@@H](CCCNC(=N)N)C(N)=O, also called Ac-Arg-Tyr-hPhe(2,4-di-NO2)-Arg-Trp-Arg-NH2) [VII-71-B] | – | 33.6 | 0.63 | 7.5
Ac-RY[Phe(4-NHAc)]RWR-NH2 (SMILES CC(=O)Nc1ccc(C[C@H](NC(=O)[C@H](Cc2ccc(O)cc2)NC(=O)[C@H](CCCNC(=N)N)NC(C)=O)C(=O)N[C@@H](CCCNC(=N)N)C(=O)N[C@@H](Cc2c[nH]c3ccccc23)C(=O)N[C@@H](CCCNC(=N)N)C(N)=O)cc1, also called Ac-Arg-Tyr-Phe(4-NHAc)-Arg-Trp-Arg-NH2) [VII-77-A] | – | 19 | 0.88 | 115
Ac-RY[Phe(4-NO2)]RWR-NH2 (SMILES CC(=O)N[C@@H](CCCNC(=N)N)C(=O)N[C@@H](Cc1ccc(O)cc1)C(=O)N[C@@H](Cc1ccc([N+](=O)[O-])cc1)C(=O)N[C@@H](CCCNC(=N)N)C(=O)N[C@@H](Cc1c[nH]c2ccccc12)C(=O)N[C@@H](CCCNC(=N)N)C(N)=O, also called Ac-Arg-Tyr-Phe(4-NO2)-Arg-Trp-Arg-NH2) [VII-63-B] | – | 43.2 | 0.17 | 3.2
Ac-RY[Phe(4-CH2SO3H)]RWR-NH2 (SMILES CC(=O)N[C@@H](CCCNC(=N)N)C(=O)N[C@@H](Cc1ccc(O)cc1)C(=O)N[C@@H](Cc1ccc(CS(=O)(=O)O)cc1)C(=O)N[C@@H](CCCNC(=N)N)C(=O)N[C@@H](Cc1c[nH]c2ccccc12)C(=O)N[C@@H](CCCNC(=N)N)C(N)=O, also called Ac-Arg-Tyr-Phe(4-CH2SO3H)-Arg-Trp-Arg-NH2) [VII-75-B] | – | < 20 | 26.7 | –
Ac-RY[Phe(4-F)]RWR-NH2 (SMILES CC(=O)N[C@@H](CCCNC(=N)N)C(=O)N[C@@H](Cc1ccc(O)cc1)C(=O)N[C@@H](Cc1ccc(F)cc1)C(=O)N[C@@H](CCCNC(=N)N)C(=O)N[C@@H](Cc1c[nH]c2ccccc12)C(=O)N[C@@H](CCCNC(=N)N)C(N)=O, also called Ac-Arg-Tyr-Phe(4-F)-Arg-Trp-Arg-NH2) [VII-61-B] | – | 70.4 | 0.05 | 2
Ac-RYYRW[Ahx]-NH2 (SMILES CC(=O)N[C@@H](CCCNC(=N)N)C(=O)N[C@@H](Cc1ccc(O)cc1)C(=O)N[C@@H](Cc1ccc(O)cc1)C(=O)N[C@@H](CCCNC(=N)N)C(=O)N[C@@H](Cc1c[nH]c2ccccc12)C(=O)NCCCCCC(N)=O, also called Ac-Arg-Tyr-Tyr-Arg-Trp-ε-aminocaproyl-NH2) [VII-57-C] | – | 37.4 | 41.9 | 358
Ac-[Dap]YYRWR-NH2 (SMILES CC(=O)N[C@@H](CN)C(=O)N[C@@H](Cc1ccc(O)cc1)C(=O)N[C@@H](Cc1ccc(O)cc1)C(=O)N[C@@H](CCCNC(=N)N)C(=O)N[C@@H](Cc1c[nH]c2ccccc12)C(=O)N[C@@H](CCCNC(=N)N)C(N)=O, also called Ac-Dap-Tyr-Tyr-Arg-Trp-Arg-NH2) [VII-65-F] | – | 13.7 | 28.1 | –
Ac-RY[Dmt]RWR-NH2 (SMILES CC(=O)N[C@@H](CCCNC(=N)N)C(=O)N[C@@H](Cc1ccc(O)cc1)C(=O)N[C@@H](Cc1c(C)cc(O)cc1C)C(=O)N[C@@H](CCCNC(=N)N)C(=O)N[C@@H](Cc1c[nH]c2ccccc12)C(=O)N[C@@H](CCCNC(=N)N)C(N)=O, also called Ac-Arg-Tyr-Tyr(2,6-di-Me)-Arg-Trp-Arg-NH2) [VII-73-A] | – | 52.7 | 0.04 | 5.2
Ac-R[Tyr(3-Cl)]YRWR-NH2 (SMILES CC(=O)N[C@@H](CCCNC(=N)N)C(=O)N[C@@H](Cc1ccc(O)c(Cl)c1)C(=O)N[C@@H](Cc1ccc(O)cc1)C(=O)N[C@@H](CCCNC(=N)N)C(=O)N[C@@H](Cc1c[nH]c2ccccc12)C(=O)N[C@@H](CCCNC(=N)N)C(N)=O, also called Ac-Arg-Tyr(3-Cl)-Tyr-Arg-Trp-Arg-NH2) [VII-87-B] | – | 72 | 0.26 | 3.9

Reference: patent US20030166571A1 (SYNVAX, published 2003)
